Reference: US20210371518A1 (University of Texas, published 2021)

Target: T1, human LILRB4 extracellular domain (ECD) recombinant protein (human, UniProt Q8NHJ6 22-259)
T1 construct: extracellular domain; also called LILRB4 ECD; LILRB4-ECD
Test: ELISA, LILRB4 recombinant protein coated, anti-human IgG F(ab)2-HRP

EC50 (read off the curve): ~0.03 µg/mL
B1: h193 (antibody, V domains shown)
VH: EVQLVESGGGLVQPGGSLRLSCAASGFSLSSSYWISWVRQAPGKGLEWIGSIDSGSVGITYYATWVKGRFTISRDNSKNTLYLQMNSLRAEDTAVYYCARHGDNWALDLWGQGTLVTVSS
VL: DLVMTQSPSTLSASVGDRVTITCQASQSINSWLAWYQQKPGKPPKLLIYKASTLASGVSSRFSGSGSGTEFTLTISSLQPDDVATYYCQHGYIRGDLDNVFGGGTKVEIKR
